Assay results from patent KR20190006154A.

Biological target: FMDV O1 Manisa (Foot and Mouth Disease Virus serotype O)
Assay: indirect ELISA, inactivated FMDV coated, hybridoma supernatant

B1: 4B14 (antibody, V domains shown)
VH: EVQLQQSGPEVVKPGASVKMSCKASGYSFTGYYMNWVKQSHVKSLEWIGRINPDNGATNYNQNVKDKASLTVDKSSNTAYMELHSLTSEDSAVYYCARWLLSPYVMDYWGQGTSVTVSS
VL: DIVLTQSPASLAVSLGQRATISYRASKSVSTSGYSYMHWNQQKPGQPPRLLIYLVSNLESGVPARFSGSGSGTDFTLNIHPVEEEDAATYYCQHIRELTRSEGGPSW
O.D (450nm) in ELISA screening plate: 2.31 O.D (450nm)

B2: 7F32 (antibody, V domains shown)
VH: EVQLVESGGDLVKPGGSLKLSCAASGFTFSNYGMSWGRQTPDKRLEWVATISSGGSYTYYPDSLKGRFTISRDNAKNTLYLQMTSLKSEDTAMYYCSSPYYDSSYDYSLDYWGQGTSVTVSS
VL: DIVLTQSPASLAVSLGQRATISYRASKSVSTSGYSYMHWNQQKPGQPPRLLIYLVSNLESGVPARFSGSGSGTDFTLNIHPVEEEDAATYYCQHIRELTRSEGGPSW
O.D (450nm) in ELISA screening plate: 0.91 O.D (450nm)
